Results: paper PMC314469, “Protein Interaction Networks by Proteome Peptide Scanning” (PLoS Biology, 2004)

T1: amphyphisin SH3 (AMPH_HUMAN), P49418
T1 chain: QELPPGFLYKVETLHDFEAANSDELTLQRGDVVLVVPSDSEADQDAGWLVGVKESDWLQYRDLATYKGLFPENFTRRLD


Key:
[1] = target: T1, amphyphisin SH3 (AMPH_HUMAN), P49418; test: SPOT array
[2] = target: endophilin SH3 (SH3G2_HUMAN), Q99962; test: SPOT array

Binder | normalised SPOT signal, Boehringer light units (BLU); mean over the file's lines of this peptide [1] | normalised SPOT signal, Boehringer light units (BLU); mean over the file's lines of this peptide [2]
ASHPPPRPPKHPSV [BAC05194 549-563] | 848 | 5360
PRKYPNRPSKTPLH [Q06889 258-271] | 79.9 | 51.5
PPRKIKRPKRKMYR [Q96PV3 296-309] | 17.3 | 30.1
PRLRPMRPPPPPPA [Q9NXX8 675-689] | 1860 | 4660
PPTPPPRPQKTHSR [O43428 338-351] | 8950 | 41100
PREGPGRPPLDGRD [Q9H8B2 127-141] | 47.3 | 58.8
PPVVPRRPPAHISS [Q9NTY8 3-17] | 6110 | 17800
PREPPRRPAFLPVG [Q13387 310-323] | 32.1 | 1100
PQGPPRRPPPHILD [Q9P2A8 24-38] | 131 | 4220
PQQFPSRPPPPQPK [Q13443 782-796] | 321 | 5200
PRPLPPRPPAAQPR [P58840 142-156] | 2770 | 7560
PPQVPSRPTRAPPS [Q9UQ16 664-677] | 8780 | 12700
PRANPRRPPRAIVP [Q8WYW1 101-114] | 373 | 94.1
PPSGPLRPPATISP [Q9H4B5 83-97] | 105 | 127
PQPGFRRPARPETQ [Q16624 63-76] | 2800 | 97
PRPLPPRPPAAQPP [P10323 331-345] | 1540 | 3120
PREFPFKPPSIYMI [Q96T84 67-81] | 32.3 | 519
PRPRPRRPRQLTRA [Q9HAM8 17-30] | 72.2 | 206
PRKLPSRPPPHYPG [O75923 185-199] | 640 | 2340
PRPPPGKPPTRPGV [O94932 475-489] | 225 | 1540
PQTELRRPGQLIDE [Q9H1Y1 836-849] | 27.5 | 44.1

Binder | normalised SPOT signal, Boehringer light units (BLU); mean over the file's lines of this peptide [1] | normalised SPOT signal, Boehringer light units (BLU); mean over the file's lines of this peptide [2]
PQPPPPKPPRPQPP [P35556 29-43] | 513 | 3390
PRKYPNRPSKTPVH [P11161 323-336] | 109 | 57.5
ASNQPKRPPAAPEN [P48634 118-131] | 38.1 | 51
PPWGPFRPPYSIFQ [BAC05210 58-72] | 56.3 | 2520
PRAVPARPPTRPRF [Q8TE87 150-164] | 6470 | 17600
PRAPLHRPQKPREG [Q9P1Y6 1426-1439] | 98.2 | 194
PRPGPSRPPPVPAP [Q9Y2G0 18-32] | 137 | 1900
PPSAPRRPPVYYKF [O95696 129-142] | 71.5 | 2730
PQEHPKRPVLGLES [O95862 118-131] | 20.2 | 4.5
PPWVPWRPPSSAAV [Q9UN47 31-45] | 829 | 835
PRGVLPRPSRVLVL [Q9NYA1 7-20] | 1850 | 508
PQPPPRRPWASRVL [O94850 45-58] | 79.9 | 508
ASGHIKRPMNAFMV [P35716 45-58] | 49 | 146
PPVRPARPPGPLVT [Q8WYX3 74-88] | 7480 | 6550
PRAWPRRPRRDYSI [O43385 549-562] | 1550 | 221
PPTRPSRPWRDLPE [Q9UIG4 65-78] | 4300 | 14300
PRKAPRRPGPGMSG [Q92611 83-96] | 46.8 | 221
ASLFPKRPALEPVR [Q9Y2X7 686-699] | 41.1 | 926
PPYGPSRPDKKQRM [Q9HA17 357-370] | 193 | 394
PPSRPSRPPSHPSA [Q99700 586-600] | 14900 | 20300
PQSSLRRPDPGRLP [O95613 3094-3107] | 39.9 | 37.8
